Measured values taken from the supplement of paper PMC11246515.
± gives the standard deviation of the averaged measurements.

Test: total protein half-life in vivo (active degradation + dilution); higher = more stable protein
[1] = E. coli NCM3722 delta-clpP delta-lon delta-hslV, growth: N-lim chemostat, doubling time 6 h
[2] = E. coli NCM3722 delta-clpP, growth: N-lim chemostat, doubling time 6 h
[3] = E. coli NCM3722 delta-smpB, growth: N-lim chemostat, doubling time 6 h
[4] = wild type E. coli NCM3722, growth: C-lim chemostat, doubling time 3 h
[5] = wild type E. coli NCM3722, growth: C-lim chemostat, doubling time 12 h
[6] = wild type E. coli NCM3722, growth: N-lim chemostat, doubling time 6 h
[7] = wild type E. coli NCM3722, growth: N-lim chemostat, doubling time 12 h
[8] = wild type E. coli NCM3722, growth: P-lim chemostat, doubling time 6 h
[9] = E. coli NCM3722 delta-lon, growth: N-lim chemostat, doubling time 6 h
[10] = wild type E. coli NCM3722, growth: C-lim chemostat, doubling time 6 h
[11] = wild type E. coli NCM3722, growth: P-lim chemostat, doubling time 12 h
[12] = E. coli NCM3722 delta-hslV, growth: N-lim chemostat, doubling time 6 h

Sequence | total protein half-life in vivo [1] [h] | total protein half-life in vivo [2] [h] | total protein half-life in vivo [3] [h] | total protein half-life in vivo [4] [h] | total protein half-life in vivo [5] [h] | total protein half-life in vivo [6] [h] | total protein half-life in vivo [7] [h] | total protein half-life in vivo [8] [h] | total protein half-life in vivo [9] [h] | total protein half-life in vivo [10] [h] | total protein half-life in vivo [11] [h] | total protein half-life in vivo [12] [h]
MLSKQIPLGIYEKALPAGECWLERLQLAKTLGFDFVEMSVDETDDRLSRLNWSREQRLALVNAIVETGVRVPSMCLSAHRRFPLGSEDDAVRAQGLEIMRKAIQFAQDVGIRVIQLAGYDVYYQEANNETRRRFRDGLKESVEMASRAQVTLAMEIMDYPLMSSISKALGYAHYLNNPWFQLYPDIGNLSAWDNDVQMELQAGIGHIVAVHVKDTKPGVFKNVPFGEGVVDFERCFETLKQSGYCGPYLIEMWSETAEDPAAEVAKARDWVKARMAKAGMVEAA | 5.97 | – | – | – | – | – | – | – | – | – | – | –
MLSPLLKRYTWNSAWLYYARIFIALCGTTAFPWWLGDVKLTIPLTLGMVAAALTDLDDRLAGRLRNLIITLFCFFIASASVELLFPWPWLFAIGLTLSTSGFILLGGLGQRYATIAFGALLIAIYTMLGTSLYEHWYQQPMYLLAGAVWYNVLTLIGHLLFPVRPLQDNLARCYEQLARYLELKSRMFDPDIEDQSQAPLYDLALANGLLMATLNQTKLSLLTRLRGDRGQRGTRRTLHYYFVAQDIHERASSSHIQYQTLREHFRHSDVLFRFQRLMSMQGQACQQLSRCILLRQPYQHDPHFERAFTHIDAALERMRDNGAPADLLKTLGFLLNNLRAIDAQLATIESEQAQALPHNNDENELADDSPHGLSDIWLRLSRHFTPESALFRHAVRMSLVLCFGYAIIQITGMHHGYWILLTSLFVCQPNYNATRHRLKLRIIGTLVGIAIGIPVLWFVPSLEGQLVLLVITGVLFFAFRNVQYAHATMFITLLVLLCFNLLGEGFEVALPRVIDTLIGCAIAWAAVSYIWPDWQFRNLPRMLERATEANCRYLDAILEQYHQGRDNRLAYRIARRDAHNRDAELASVVSNMSSEPNVTPQIREAAFRLLCLNHTFTSYISALGAHREQLTNPEILAFLDDAVCYVDDALHHQPADEERVNEALASLKQRMQQLEPRADSKEPLVVQQVGLLIALLPEIGRLQRQITQVPQETPVSA | 5.89 | 5.69 | 5.95 ± 0.25 | 3.21 ± 0.3 | > 16 | 5.03 ± 1.3 | 13.4 | 6.49 ± 0.13 | – | – | – | –
MLSRHINYFLAVAEHGSFTRAASALHVSQPALSQQIRQLEESLGVPLFDRSGRTIRLTDAGEVWRQYASRALQELGAGKRAIHDVADLTRGSLRIAVTPTFTSYFIGPLMADFYARYPSITLQLQEMSQEKIEDMLCRDELDVGIAFAPVHSPELEAIPLLTESLALVVAQHHPLAVHEQVALSRLHDEKLVLLSAEFATREQIDHYCEKAGLHPQVVIEANSISAVLELIRRTSLSTLLPAAIATQHDGLKAISLAPPLLERTAVLLRRKNSWQTAAAKAFLHMALDKCAVVGGNESR | 5.07 ± 0.31 | – | – | 2.02 ± 0.18 | 6.21 | – | 12.6 | 5.54 | 6.84 | 4.75 ± 0.2 | 5.16 ± 2 | –
MLTKDLSITFCGVKFPNPFCLSSSPVGNCYEMCAKAYDTGWGGVVFKTIGFFIANEVSPRFDHLVKEDTGFIGFKNMEQIAEHPLEENLAALRRLKEDYPDKVLIASIMGENEQQWEELARLVQEAGADMIECNFSCPQMTSHAMGSDVGQSPELVEKYCRAVKRGSTLPMLAKMTPNIGDMCEVALAAKRGGADGIAAINTVKSITNIDLNQKIGMPIVNGKSSISGYSGKAVKPIALRFIQQMRTHPELRDFPISGIGGIETWEDAAEFLLLGAATLQVTTGIMQYGYRIVEDMASGLSHYLADQGFDSLQEMVGLANNNIVPAEDLDRSYIVYPRINLDKCVGCGRCYISCYDGGHQAMEWSEKTRTPHCNTEKCVGCLLCGHVCPVGCIELGEVKFKKGEKEHPVTL | 4.6 | – | – | 0.869 ± 0.52 | 1.67 ± 0.23 | – | – | – | – | 2.35 | – | –
MLTTLIYRSHIRDDEPVKKIEEMVSIANRRNMQSDVTGILLFNGSHFFQLLEGPEEQVKMIYRAICQDPRHYNIVELLCDYAPARRFGKAGMELFDLRLHERDDVLQAVFDKGTSKFQLTYDDRALQFFRTFVLATEQSTYFEIPAEDSWLFIADGSDKELDSCALSPTINDHFAFHPIVDPLSRRIIAFEAIVQKNEDSPSAIAVGQRKDGEIYTADLKSKALAFTMAHALELGDKMISINLLPMTLVNEPDAVSFLLNEIKANALVPEQIIVEFTESEVISRFDEFAEAIKSLKAAGISVAIDHFGAGFAGLLLLSRFQPDRIKISQELITNVHKSGPRQAIIQAIIKCCTSLEIQVSAMGVATPEEWMWLESAGIEMFQGDLFAKAKLNGIPSIAWPEKK | 5.85 ± 0.18 | – | – | – | – | – | – | 0.443 | 1.79 ± 0.32 | 2.73 ± 2.2 | – | –
MLTVKQIEAAKPKEKPYRLLDGNGLYLYVPVSGKKVWQLRYKIDGKEKILTVGKYPLMTLQEARDKAWTARKDISVGIDPVKAKKASSNNNSFSAIYKEWYEHKKQVWSVGYATELAKMFDDDILPIIGGLEIQDIEPMQLLEVIRRFEDRGAMERANKARRRCGEVFRYAIVTGRAKYNPAPDLADAMKGYRKKNFPFLPADQIPAFNKALATFSGSIVSLIATKVLRYTALRTKELRSMLWKNVDFENRIITIDASVMKGRKIHVVPMSDQVVELLTTLSSITKPVSEFVFAGRNDKKKPICENAVLLVIKQIGYEGLESGHGFRHEFSTIMNEHEWPADAIEVQLAHANGGSVRGIYNHAQYLDKRREMMQWWADWLDEKVE | 6.44 ± 2.1 | 5.79 ± 0.58 | 5.02 ± 0.39 | 3.123 ± 0.013 | 10.3 ± 0.26 | 5.503 ± 0.0091 | – | 5.34 ± 0.46 | 5.37 ± 0.098 | 5.53 ± 0.077 | 10.8 ± 1.7 | 5.96 ± 0.24
MLVSKKPMVLVILDGYGYREEQQDNAIFSAKTPVMDALWANRPHTLIDASGLEVGLPDRQMGNSEVGHVNLGAGRIVYQDLTRLDVEIKDRAFFANPVLTGAVDKAKNAGKAVHIMGLLSAGGVHSHEDHIMAMVELAAERGAEKIYLHAFLDGRDTPPRSAESSLKKFEEKFAALGKGRVASIIGRYYAMDRDNRWDRVEKAYDLLTLAQGEFQADTAVAGLQAAYARDENDEFVKATVIRAEGQPDAAMEDGDALIFMNFRADRAREITRAFVNADFDGFARKKVVNVDFVMLTEYAADIKTAVAYPPASLVNTFGEWMAKNDKTQLRISETEKYAHVTFFFNGGVEESFKGEDRILINSPKVATYDLQPEMSSAELTEKLVAAIKSGKYDTIICNYPNGDMVGHTGVMEAAVKAVEALDHCVEEVAKAVESVGGQLLITADHGNAEQMRDPATGQAHTAHTNLPVPLIYVGDKNVKAVEGGKLSDIAPTMLSLMGMEIPQEMTGKPLFIVE | 5.19 ± 0.06 | 5.05 ± 0.79 | 4.458 ± 0.033 | 2.85 ± 0.1 | 10 ± 1.6 | 4.76 ± 0.1 | 7.769 ± 0.048 | 5.1 ± 0.24 | 4.97 ± 0.22 | 5.58 ± 0.34 | 10.35 ± 0.034 | 5.19 ± 0.44
MLYIFDLGNVIVDIDFNRVLGAWSDLTRIPLASLKKSFHMGEAFHQHERGEISDEAFAEALCHEMALPLSYEQFSHGWQAVFVALRPEVIAIMHKLREQGHRVVVLSNTNRLHTTFWPEEYPEIRDAADHIYLSQDLGMRKPEARIYQHVLQAEGFSPSDTVFFDDNADNIEGANQLGITSILVKDKTTIPDYFAKVLC [P0A8Y3] | – | 5.75 ± 1.6 | 4.212 ± 0.04 | 2.92 ± 0.13 | 9.46 ± 0.36 | 4.14 ± 0.74 | 6.16 ± 0.12 | 5.18 ± 0.06 | 5 ± 0.69 | 6.31 ± 0.65 | 9.4 ± 0.48 | 3.94 ± 0.21
MLYIFRLIITVIYSILVCVFGSIYCLFSPRNPKHVATFGHMFGRLAPLFGLKVECRKPTDAESYGNAIYIANHQNNYDMVTASNIVQPPTVTVGKKSLLWIPFFGQLYWLTGNLLIDRNNRTKAHGTIAEVVNHFKKRRISIWMFPEGTRSRGRGLLPFKTGAFHAAIAAGVPIIPVCVSTTSNKINLNRLHNGLVIVEMLPPIDVSQYGKDQVRELAAHCRSIMEQKIAELDKEVAEREAAGKV | 5.89 | 6.07 ± 0.43 | 4.95 | – | – | 5.93 ± 0.29 | 12.2 ± 1.3 | 6.42 ± 1.2 | – | 6.42 | 11.8 ± 0.39 | –
MMDLDNIPDTQTEAEELEEVVMGLIINSGQARSLAYAALKQAKQGDFAAAKAMMDQSRMALNEAHLVQTKLIEGDAGEGKMKVSLVLVHAQDHLMTSMLARELITELIELHEKLKA | 4.73 | 2.85 ± 0.031 | – | 1.44 | 2.66 | – | – | – | – | 1.82 ± 0.14 | – | –
MMDNMQTEAQPTRTRILNAAREIFSENGFHSASMKAICKSCAISPGTLYHHFISKEALIQAIILQDQERALARFREPIEGIHFVDYMVESIVSLTHEAFGQRALVVEIMAEGMRNPQVAAMLKNKHMTITEFVAQRMRDAQQKGEISPDINTAMTSRLLLDLTYGVLADIEAEDLAREASFAQGLRAMIGGILTAS [P0ACT6] | 6.37 ± 1.1 | 5.2 ± 0.53 | 5.56 ± 0.51 | 3.36 ± 0.77 | – | 4.87 ± 0.49 | 9.35 ± 0.28 | 4.64 ± 0.12 | – | 6.053 ± 0.026 | 10.3 ± 0.2 | 4.39 ± 0.71
MMEFILSHVEKGVMTLTLNRPERLNSFNDEMHAQLAECLKQVERDDTIRCLLLTGAGRGFCAGQDLNDRNVDPTGPAPDLGMSVERFYNPLVRRLAKLPKPVICAVNGVAAGAGATLALGGDIVIAARSAKFVMAFSKLGLIPDCGGTWLLPRVAGRARAMGLALLGNQLSAEQAHEWGMIWQVVDDETLADTAQQLARHLATQPTFGLGLIKQAINSAETNTLDTQLDLERDYQRLAGRSADYREGVSAFLAKRSPQFTGK | 4.04 | – | – | – | – | – | – | – | – | – | – | –
MMELMVVHPHIFWLSLGGLLLAAEMLGGNGYLLWSGVAAVITGLVVWLVPLGWEWQGVMFAILTLLAAWLWWKWLSRRVREQKHSDSHLNQRGQQLIGRRFVLESPLVNGRGHMRVGDSSWPVSASEDLGAGTHVEVIAIEGITLHIRAVSS [P0AAS3] | 6.35 ± 0.63 | 6.38 ± 0.81 | 6.81 | 2.86 | 10.5 ± 1.8 | 6.42 ± 0.38 | 11.1 ± 0.17 | 7.12 | 5.91 | > 8 | 10.6 ± 0.41 | 5.57 ± 0.15
MMIRERIEEKLRAAFQPVFLEVVDESYRHNVPAGSESHFKVVLVSDRFTGERFLNRHRMIYSTLAEELSTTVHALALHTYTIKEWEGLQDTVFASPPCRGAGSIA [P0ABE2] | 3.71 ± 0.15 | – | 1.55 | 1.53 ± 0.071 | 3.32 | 1.99 ± 0.31 | 3.19 | 3.23 | 1.81 ± 0.13 | 2.52 ± 0.14 | 5.55 ± 0.6 | –
MMKFKKCLLPVAMLASFTLAGCQSNADDHAADVYQTDQLNTKQETKTVNIISILPAKVAVDNSQNKRNAQAFGALIGAVAGGVIGHNVGSGSNSGTTAGAVGGGAVGAAAGSMVNDKTLVEGVSLTYKEGTKVYTSTQVGKECQFTTGLAVVITTTYNETRIQPNTKCPEKS | – | – | 2.3 | 1.87 | – | 2.73 | – | – | – | – | – | –
MMKKPVVIGLAVVVLAAVVAGGYWWYQSRQDNGLTLYGNVDIRTVNLSFRVGGRVESLAVDEGDAIKAGQVLGELDHKPYEIALMQAKAGVSVAQAQYDLMLAGYRNEEIAQAAAAVKQAQAAYDYAQNFYNRQQGLWKSRTISANDLENARSSRDQAQATLKSAQDKLRQYRSGNREQDIAQAKASLEQAQAQLAQAELNLQDSTLIAPSDGTLLTRAVEPGTVLNEGGTVFTVSLTRPVWVRAYVDERNLDQAQPGRKVLLYTDGRPDKPYHGQIGFVSPTAEFTPKTVETPDLRTDLVYRLRIVVTDADDALRQGMPVTVQFGDEAGHE | 6.76 ± 0.87 | – | 6.26 ± 0.13 | 3.39 ± 0.38 | 11.2 ± 1.9 | 6.2 ± 0.46 | 13.54 ± 0.12 | 6.02 ± 0.17 | 6.47 ± 0.38 | – | 14.2 ± 0.91 | 6.75 ± 0.14
